In patent US20220125891A1 (OSAKA UNIVERSITY, published 2022):
Positions of bridges follow the written chain, without caps; N, C: chain ends. Non-standard residues stand in square brackets, D forms with d. No end group written: not given here. NMeA = CN[C@@H](C)C(=O)O; dNMeA = CN[C@H](C)C(=O)O

T1: full-length human Regnase-1 with a FLAG tag on the N-terminal side and a biotin ligase BirA recognition … (human, UniProt Q5D1E8 1-599, biotinylated where required ; Biotinylated at the BirA recognition sequence where required. That sequence is not in the letters.)
T1 sequence: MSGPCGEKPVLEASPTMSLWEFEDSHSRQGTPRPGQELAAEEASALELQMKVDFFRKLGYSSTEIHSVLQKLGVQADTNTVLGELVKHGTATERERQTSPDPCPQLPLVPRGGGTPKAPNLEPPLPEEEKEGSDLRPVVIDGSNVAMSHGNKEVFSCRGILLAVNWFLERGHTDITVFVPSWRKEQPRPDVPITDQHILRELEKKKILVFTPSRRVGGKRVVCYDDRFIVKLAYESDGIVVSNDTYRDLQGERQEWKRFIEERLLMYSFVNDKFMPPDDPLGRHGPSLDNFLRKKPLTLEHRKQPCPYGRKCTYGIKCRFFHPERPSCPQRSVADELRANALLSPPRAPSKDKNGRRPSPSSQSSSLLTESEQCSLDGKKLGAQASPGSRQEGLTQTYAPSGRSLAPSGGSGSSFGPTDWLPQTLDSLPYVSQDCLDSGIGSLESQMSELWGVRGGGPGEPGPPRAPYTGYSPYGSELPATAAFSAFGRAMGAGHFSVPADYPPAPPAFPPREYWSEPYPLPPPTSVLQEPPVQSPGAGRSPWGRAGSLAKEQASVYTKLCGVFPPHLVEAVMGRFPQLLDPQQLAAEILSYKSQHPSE

T2: Reg1_301-599 (human Regnase-1 amino acids 301 to 599, FLAG tag on the N-terminal side, BirA recognition … (human))
T2 sequence (Q5D1E8 301-599, looked up): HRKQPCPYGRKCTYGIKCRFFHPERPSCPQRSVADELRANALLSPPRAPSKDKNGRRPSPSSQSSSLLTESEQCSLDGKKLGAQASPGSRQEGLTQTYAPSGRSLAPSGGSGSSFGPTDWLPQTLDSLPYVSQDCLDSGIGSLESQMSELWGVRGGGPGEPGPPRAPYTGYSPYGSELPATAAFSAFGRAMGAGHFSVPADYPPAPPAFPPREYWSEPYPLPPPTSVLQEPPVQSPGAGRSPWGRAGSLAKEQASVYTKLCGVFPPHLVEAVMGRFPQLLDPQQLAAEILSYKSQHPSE


Assays:
[1] = biological target: T1, full-length human Regnase-1 with a FLAG …; assay: cell-based or functional assay
[2] = biological target: T2, Reg1_301-599 (human Regnase-1 amino …); assay: cell-based or functional assay
[3] = biological target: T3, ΔCTD_Reg1 (human Regnase-1 amino acids 1 to 546, FLAG tag on the N-terminal side, BirA recognition sequence … (human)); assay: cell-based or functional assay
[4] = biological target: T1, full-length human Regnase-1 with a FLAG …; assay: AlphaScreen, blocks IKKβ binding to FL_Reg1
[5] = biological target: T1, full-length human Regnase-1 with a FLAG …; assay: affinity selection-MS (SEC, LC/MS), 1 µM each
[6] = biological target: T1, full-length human Regnase-1 with a FLAG …; assay: AlphaScreen, blocks TBK1 binding to FL_Reg1
[7] = biological target: T1, full-length human Regnase-1 with a FLAG …; assay: cell-based or functional assay; remark: listed apart in the source
[8] = biological target: T2, Reg1_301-599 (human Regnase-1 amino …); assay: cell-based or functional assay; remark: listed apart in the source
[9] = biological target: T3, ΔCTD_Reg1 (human Regnase-1 amino acids …); assay: cell-based or functional assay; remark: listed apart in the source

Row | Binder | IC50, phosphorylation by IKKβ [1] [µM] | IC50, phosphorylation by IKKβ [2] [µM] | IC50, phosphorylation by IKKβ [3] [µM] | IC50 [4] [µM] | AS-MS ratio(%) [5] [%] | IC50 [6] [µM] | IC50, phosphorylation by TBK1 [7] [µM] | IC50, phosphorylation by TBK1 [8] [µM] | IC50, phosphorylation by TBK1 [9] [µM]
1 | [NMeA]WIWDFWNED (lactam N-10) [PP24] | 5.3 | 7.2 | 4 | 8.8 | 51.1 | 7.7 | 35.7 | 34.8 | 27.3
2 | [NMeA]NFNSAYYRAIWD (lactam N-13) [PP7] | 0.8 | 3 | 4.5 | 15.1 | 15.8 | 17.9 | 2.2 | 4.6 | 4.7
3 | [dNMeA]SKYWNSWYNIWD (lactam N-13) [PP8] | 1.4 | 5.7 | 7.8 | 7.4 | 6.2 | 6.5 | 2.9 | 6 | 5.5
4 | [NMeA]NYQSWYYRSIWD (lactam N-13) [PP10] | 0.5 | 1.8 | 2.6 | 11.4 | 3.7 | 9.8 | 0.2 | 0.4 | 0.2
5 | [NMeA]KFAQFRWIYPD (lactam N-12) [PP11] | 22.3 | > 62.1 | > 62.1 | > 62.1 | 5.1 | 60.9 | 29.1 | > 62.1 | 55.6
6 | [dNMeA]EDTPEDDHD (lactam N-10) [PP25] | 27 | 27.6 | 47.7 | > 62.1 | 6.9 | 13.1 | 18.9 | 16.3 | 16.1
7 | [dNMeA]TYGHSSWYKIWD (lactam N-13) [PP9] | 2.7 | 6.2 | 6.4 | 10.6 | 14.8 | 8.3 | 4.2 | 7.9 | 6.6
8 | [NMeA]RYAVYQWIYPD (lactam N-12) [PP12] | 6.8 | 20.7 | 27 | > 62.1 | 21 | > 62.1 | 12.7 | 19.6 | 22.5
9 | [NMeA]RFRQWKWVYPD (lactam N-12) [PP13] | 3.6 | 23.2 | 43.2 | 16.9 | 0.1 | 13.8 | 8.4 | 18 | 17.7
